Experiments:
Assay type in all cases: cell-based, human
[1] = test system: R-loops foci in U2OS cells; assay: Quantification of RHINO R-loops foci after transcription inhibition with triptolide
From the text: (A) Illustration of RHINO structure (left) and DNA:RNA hybrid labelling in an R-loop behind a transcribing RNA Pol II complex (right). The positions of the amino acids substituted in the RHINO mutants are indicated by red […]) and blue ([…]) asterisks. (B) Confocal microscopy images of RHINO expressed in U2OS cells together with mCherry-H2B to mark the cell nucleus and a corresponding max. intensity projection. RHINO spots throughout the nucleoplasm (highlighted in inset image) and intense labelled foci in the nucleoli are shown. (C) Comparison of RHINO and S9.6 antibody labelling of DNA:RNA hybrids. The nucleolar signals of S9.6 and RHINO are mutually exclusive (inset). (D) Expression of two RHINO mutant constructs and mCherry-histone-H2B. […] (E) Max. intensity projections of live U2OS cells expressing RHINO alone (left) or co-expressing mScarlet-i tagged human RNase H1 (right) and quantification of RHINO foci for each condition. (F) Quantification of RHINO foci upon use of a rapid inducible RNase H1. […] Quantification of RHINO foci before and 1 h after TA addition. (G) Max. intensity projections of random live U2OS cells expressing RHINO before and after 1 h incubation with Triptolide and quantification of RHINO foci number. (H) Max. intensity projections of the same live U2OS cells expressing RHINO before and after 1 h incubation with Triptolide and quantification of RHINO foci number. […]

[2] = test system: nucleolar R-loops in U2OS cells; assay: FRAP on individual nucleolar RHINO foci; details: in 200 seconds
From the text: (A) Labelling of nucleolar R-loops in live U2OS cells. Nucleoli are labelled by a red fluorescent nucleolar marker. Bright RHINO foci in several nucleoli are indicated with arrowheads. (B) Dissecting R-loop localization in nucleolar substructures. U2OS cells expressing RHINO were fixed and stained with an anti-UBF antibody marking the fibrillar centres/dense fibrillar component interface. Display of two super-resolution microscopy image sets acquired with structured illumination (top) and Airyscan 2 technology (bottom). (C) Measurements of nucleolar R-loops dynamics by FRAP on RHINO foci inside nucleoli. The fluorescence within the red circle was bleached (false colour images) and the recovery monitored over time. […] (D) Labelling of Tel-R-loops in live U2OS cells co-expressing RHINO and iRFP-TRF2. […]
Owing to the lack of robust tools to image and collect quantitative parameters of R-loops in live cells, a clear understanding of R-loops dynamics and of their specific kinetics at distinct genomic loci is scarce. […] To investigate the dynamics of nucleolar R-loops, fluorescence recovery was performed after photobleaching (FRAP) experiments in individual nucleolar RHINO foci (FIG. 2C). We observed a rapid turnover of fluorescent RHINO molecules, which restored 90% of the initial fluorescence intensity in 200 seconds (FIG. 2C).

[3] = test system: telomeric R-loops in U2OS cells; assay: FRAP at labelled telomeres
From the text: (A) Labelling of nucleolar R-loops in live U2OS cells. Nucleoli are labelled by a red fluorescent nucleolar marker. Bright RHINO foci in several nucleoli are indicated with arrowheads. (B) Dissecting R-loop localization in nucleolar substructures. U2OS cells expressing RHINO were fixed and stained with an anti-UBF antibody marking the fibrillar centres/dense fibrillar component interface. Display of two super-resolution microscopy image sets acquired with structured illumination (top) and Airyscan 2 technology (bottom). (C) Measurements of nucleolar R-loops dynamics by FRAP on RHINO foci inside nucleoli. The fluorescence within the red circle was bleached (false colour images) and the recovery monitored over time. […] (D) Labelling of Tel-R-loops in live U2OS cells co-expressing RHINO and iRFP-TRF2. Several telomeres show directly adjacent or overlapping labelling of R-loops (magnified details 1-5). […] (E) Measurements of Tel-R-loops dynamics by FRAP of wild-type RHINO compared to both mutants and diffuse GFP at labelled telomeres. False colour images show the wild-type RHINO labelled cell with the bleach region (red circle). The curves display the mean intensity (+/−SD) of RHINO foci, RHINO mutants and diffuse GFP as control. […]

Molecule	number of R-loops foci detected by RHINO ([1]; one-hour treatment, bulk cell population of U2OS cells)	reduction in the number of R-loops foci ([1]; same RHINO-expressing cells imaged before and one hour after treatment) [%]	restored initial fluorescence intensity after photobleaching [2] [%]	fluorescence recovery relative to initial intensity ([3]; major fraction of telomeric R-loops, within 10-15 seconds after photobleaching) [%]	fluorescence recovery, second population of telomeric R-loops ([3]; other (minor) population of telomeric R-loops)
CC(C)[C@]12O[C@H]1[C@@H]1O[C@]13[C@]1(O[C@H]1C[C@H]1C4=C(CC[C@@]13C)C(=O)OC4)[C@@H]2O [triptolide]	significantly decrease	46	–	–	–
RHINO: genetically encoded RNA:DNA hybrid-binding sensor; fusion protein comprising 3 HBDs and a reporter domain (e.g., a fluorescent protein) (protein) MFYAVRRGRKTGVFLTWNECRAQVDRFPAARFKKFATEDEAWAFVRKSASVDGTAGPGSAVFYAVRRGRKTGVFLTWNECRAQVDRFPAARFKKFATEDEAWAFVRKSASVDGTAGPGSAVFYAVRRGRKTGVFLTWNECRAQVDRFPAARFKKFATEDEAWAFVRKSASVDGTAGPGSTGVTGKLDPPVATMVSKGEEDNMASLPATHELHIFGSINGVDFDMVGQGTGNPNDGYEELNLKSTKGDLQFSPWILVPHIGYGFHQYLPYPDGMSPFQAAMVDGSGYQVHRTMQFEDGASLTVNYRYTYEGSHIKGEAQVKGTGFPADGPVMTNSLTAADWCRSKKTYPNDKTIISTFKWSYTTGNGKRYRSTARTTYTFAKPMAANYLKNQPMYVFRKTELKHSKTELNFKEWQKAFTDVMGMDELYK	–	–	90	88	little to no recovery

Reference: patent publication US20260234584A1, “R-LOOP SENSOR” (FUNDAÇÃO GIMM - GULBENKIAN INSTITUTE FOR MOLECULAR MEDICINE, priority 2023, published 2026)
